Experimental findings from patent US20220033515A1 (Genentech, published 2022) are described below.

For assay [1], the target named is T1, HER2 extracellular domain (Her2-ECD) (human, UniProt P04626 23-652).
T1 construct: extracellular domain; also called hHER2 extracellular domain (ECD)
Briefly: competition ELISA of phage-displayed Fab.

In assay [2] the target is T2, hVEGF109 (human, UniProt P15692 214-315).
T2 construct: range 8-109; also called VEGF (8-109)
T2 sequence (looked up): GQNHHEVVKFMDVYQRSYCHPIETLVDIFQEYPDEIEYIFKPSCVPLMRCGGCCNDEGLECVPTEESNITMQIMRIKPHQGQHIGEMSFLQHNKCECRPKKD
Put plainly: single-spot competitive phage ELISA.

In assay [3] the target is T1, HER2 extracellular domain (Her2-ECD). Briefly: single-spot competitive phage ELISA.

B1: 20.49 (Fab, V domains shown)
VH: not shown
VL: DIQMTQSPSSLSASVGDRVTITCRASVDLPKSVSGYVAWYQQKPGKAPKLLIYWGSFLYSGVPSRFSGSGSGTDFTLTISSLQPEDFATYYCQQHFTSPPTFGQGTKVEIKR
Take B1: the IC50 in assay [1] worked out at 2.6 nM. This counts as single-digit nanomolar.

B2: 35.95 (Fab, V domains shown)
VH: not shown
VL: DIQMTQSPSSLSASVGDRVTITCRAIENLPKSVSGYVAWYQQKPGKAPKLLIYWGSFLYSGVPSRFSGSGSGTDFTLTISSLQPEDFATYYCQQHYTSPPTFGQGTKVEIKR
The molecule B2 showed an IC50 in assay [1] of 4.3 nM. Against the preceding molecule, the IC50 is about 1.7-fold higher.

B3: 35.25 (Fab, V domains shown)
VH: not shown
VL: DIQMTQSPSSLSASVGDRVTITCRAIQKVPRTITGYVAWYQQKPGKAPKLLIYWGSFLYSGVPSRFSGSGSGTDFTLTISSLQPEDFATYYCQQHYTSPPTFGQGTKVEIKR
Take B3: the IC50 in assay [1] was 0.4 nM.

B4: 35.21 (Fab, V domains shown)
VH: not shown
VL: DIQMTQSPSSLSASVGDRVTITCRASQDLPKSISGYVAWYQQKPGKAPKLLIYWGSFLYSGVPSRFSGSGSGTDFTLTISSLQPEDFATYYCQQHFSSPPTFGQGTKVEIKR
Turning to B4, in assay [1], the IC50 stood at 1.4 nM.

B5: 35.74 (Fab, V domains shown)
VH: not shown
VL: DIQMTQSPSSLSASVGDRVTITCRAIQDIPKTITGYVAWYQQKPGKAPKLLIYWGSFLYSGVPSRFSGSGSGTDFTLTISSLQPEDFATYYCQQHFNSPPKFGQGTKVEIKR
With B5, the IC50 in assay [1] was 0.7 nM.

B6: 35.56 (Fab, V domains shown)
VH: not shown
VL: DIQMTQSPSSLSASVGDRVTITCRAVQNLPKTITGYVAWYQQKPGKAPKLLIYWGSFLYSGVPSRFSGSGSGTDFTLTISSLQPEDFATYYCQQHYTIPPKFGQGTKVEIKR
The molecule B6 displayed an IC50 in assay [1] of 1.7 nM.

B7: 20.93 (Fab, V domains shown)
VH: not shown
VL: DIQMTQSPSSLSASVGDRVTITCRAVEDLPKTITGYVAWYQQKPGKAPKLLIYWGSFLYSGVPSRFSGSGSGTDFTLTISSLQPEDFATYYCQQHFTTPPKFGQGTKVEIKR
B7 had a half-maximal inhibitory concentration (IC50) in assay [1] of 3.8 nM.

B8: 35.61 (Fab, V domains shown)
VH: not shown
VL: DIQMTQSPSSLSASVGDRVTITCRAIENLPKSITGYVAWYQQKPGKAPKLLIYWGSFLYSGVPSRFSGSGSGTDFTLTISSLQPEDFATYYCQQHYSTTPKFGQGTKVEIKR
In turn, B8 registered an IC50 in assay [1] of 7.1 nM.

B9: 35.2 (Fab, V domains shown)
VH: not shown
VL: DIQMTQSPSSLSASVGDRVTITCRAIEDLPKTVSGYVAWYQQKPGKAPKLLIYWGSFLYSGVPSRFSGSGSGTDFTLTISSLQPEDFATYYCQQHYSSPPTFGQGTKVEIKR
In turn, B9 came in with an IC50 in assay [1] of 3.5 nM.

B10: 35.87 (Fab, V domains shown)
VH: not shown
VL: DIQMTQSPSSLSASVGDRVTITCRASQNIPKSVSGYVAWYQQKPGKAPKLLIYWGSFLYSGVPSRFSGSGSGTDFTLTISSLQPEDFATYYCQQHFNSPPTFGQGTKVEIKR
In the case of B10, in assay [1], the IC50 worked out at 2.2 nM.

B11: 35.28 (Fab, V domains shown)
VH: not shown
VL: DIQMTQSPSSLSASVGDRVTITCRAIQNIAKTITGYVAWYQQKPGKAPKLLIYWGSFLYSGVPSRFSGSGSGTDFTLTISSLQPEDFATYYCQQHFNSPPKFGQGTKVEIKR
For B11, the half-inhibitory concentration (IC50) in assay [1] amounted to 0.6 nM.

B12: 20.52 (Fab, V domains shown)
VH: not shown
VL: DIQMTQSPSSLSASVGDRVTITCRAIENLPKTISGYVAWYQQKPGKAPKLLIYWGSFLYSGVPSRFSGSGSGTDFTLTISSLQPEDFATYYCQQHFSSPPTFGQGTKVEIKR
Molecule B12 returned an IC50 in assay [1] of 3.1 nM. This IC50 lies about 5.2-fold higher than the previous one.

B13: 35.45 (Fab, V domains shown)
VH: not shown
VL: DIQMTQSPSSLSASVGDRVTITCRASEDIPKTVSGYVAWYQQKPGKAPKLLIYWGSFLYSGVPSRFSGSGSGTDFTLTISSLQPEDFATYYCQQHFSSPPTFGQGTKVEIKR
The molecule B13 gave an IC50 in assay [1] of 1.1 nM.

B14: 20.80 (Fab, V domains shown)
VH: not shown
VL: DIQMTQSPSSLSASVGDRVTITCRASEDIPKSISGYVAWYQQKPGKAPKLLIYWGSFLYSGVPSRFSGSGSGTDFTLTISSLQPEDFATYYCQQHFSSPPTFGQGTKVEIKR
B14 returned an IC50 in assay [1] of 2.2 nM.

B15: clone 12 (scFv, V domains shown)
VH: not shown
VL: DIQMTQSPSSLSASVGDRVTITCRASQDIGGGSVAWYQQKPGKAPKLLIYWGSFLYSGVPSRFSGSGSGTDFTLTISSLQPEDFATYYCQQHYTTPPTFGQGTKVEIK
Turning to B15, in assay [2], the “% signal, SSC +/- 50 or 100nM VEGF” value amounted to 81.3% and the OD450 without competitor was 2.23. Moreover, in assay [3], the OD450 without competitor came out at 0.04.

B16: clone 45 (scFv, V domains shown)
VH: not shown
VL: DIQMTQSPSSLSASVGDRVTITCRASQDIHSGSVAWYQQKPGKAPKLLIYWGSYLYSGVPSRFSGSGSGTDFTLTISSLQPEDFATYYCQQHYTTPPTFGQGTKVEIK
For B16, in assay [2], the “% signal, SSC +/- 50 or 100nM VEGF” value was 88.2% and the OD450 without competitor worked out at 3.08. Further, the OD450 without competitor in assay [3] amounted to 0.05.

B17: clone 27 (scFv, V domains shown)
VH: not shown
VL: DIQMTQSPSSLSASVGDRVTITCRASQYVYSTTVAWYQQKPGKAPKLLIYNGSSLYSGVPSRFSGSGSGTDFTLTISSLQPEDFATYYCQQASSAPPTFGQGTKVEIK
Consider B17, for which, in assay [2], the “% signal, SSC +/- 50 or 100nM VEGF” value is 95.7% and the OD450 without competitor is 2.82. The molecule also registered an OD450 without competitor in assay [3] of 0.04.

B18: clone 75 (scFv, V domains shown)
VH: not shown
VL: DIQMTQSPSSLSASVGDRVTITCRASQDIPSIYVAWYQQKPGKAPKLLIYGASYLYSGVPSRFSGSGSGTDFTLTISSLQPEDFATYYCQQRYWVAPPTFGQGTKVEIK
As for B18, in assay [2], the “% signal, SSC +/- 50 or 100nM VEGF” value was 85.1% and the OD450 without competitor was determined as 2.9. The molecule further had an OD450 without competitor in assay [3] of 0.07.

B19: 3-3 (scFv, V domains shown)
VH: not shown
VL: DIQMTQSPSSLSASVGDRVTITCRASQQIWRHLAWYQQKPGKAPKLLIYTGSSLYSGVPSRFSGSGSGTDFTLTISSLQPEDFATYYCQQSYWVAPPTFGQGTKVEIK
notes: also called c3-3
Turning to B19, the OD450 without competitor in assay [3] was 0.05.

B20: H6 (scFv, V domains shown)
VH: not shown
VL: DIQMTQSPSSLSASVGDRVTITCRASQYIWNYVAWYQQKPGKAPKLLIYGGSSLYSGVPSRFSGSGSGTDFTLTISSLQPEDFATYYCQQSWWAGPPTFGQGTKVEIK
With B20, the OD450 without competitor in assay [3] was 0.05.

B21: clone 6 (scFv, V domains shown)
VH: not shown
VL: DIQMTQSPSSLSASVGDRVTITCRASQDIWRAVAWYQQKPGKAPKLLIYPASNLYSGVPSRFSGSGSGTDFTLTISSLQPEDFATYYCQQGYYIAPPTFGQGTKVEIK
For B21, in assay [2], the “% signal, SSC +/- 50 or 100nM VEGF” value came out at 85.6% and the OD450 without competitor came out at 2.12. The OD450 without competitor in assay [3] worked out at 0.04.

B22: clone 67 (lower block) (scFv, V domains shown)
VH: not shown
VL: DIQMTQSPSSLSASVGDRVTITCRASQDIWRWLAWYQQKPGKAPKLLIYAGSSLYSGVPSRFSGSGSGTDFTLTISSLQPEDFATYYCQQHDQAPPTFGQGTKVEIK
B22: in assay [2], the “% signal, SSC +/- 50 or 100nM VEGF” value worked out at 85.8% and the OD450 without competitor was found to be 1.05. The molecule also came in with an OD450 without competitor in assay [3] of 0.05.
